The results in this text go back to patent US20240301442A1 (Regeneron, published 2024).

In assay [1] the target is Zika virus envelope (Env) protein on MR766 virus (Zika virus MR766, UniProt Q32ZE1 291-790). In words: cell-based or functional assay.
The target of assay [2] is T1, Zika (prM80E)-mmh (Zika virus).
T1 construct: domain: prM80E; also called Zika envelope protein; Lot #REGN4233-L4
In words: ELISA, Zika (prM80E)-mmh coated, mouse serum, anti-human IgG HRP detection. (An ELISA detects its analyte on a solid surface through an enzyme-linked reagent.)

For assay [3], the target named is PcrV of P. aeruginosa strain 6077 (on live bacteria) (Pseudomonas aeruginosa strain 6077). In words: cell-based or functional assay.
Assay [4] deals with recombinant full-length P. aeruginosa PcrV (GenScript) (Pseudomonas aeruginosa).

“And” between values parts separate entries of the source, which are not always exact repeats. Identical values can stand only once.

B1: REGN4446 anti-Zika antibody expressed in mouse serum from episomal AAV2/8.CASI.REGN4446 HC T2A RORss LC (antibody, V domains shown)
VH: QVQLVESGGGVVQPGRSLRLSCAASGFTFNYYGMHWVRQAPGKGLEWVAVISYDGTNKYYADSVKGRFTTSRDNSKNTLYLQMNSLRAEDTALYYCARDRGGRFDYWGQGIQVTVSS
VL: EIVLTQSPDTLSLSPGERATLSCRASQSVSSNYLAWYQQKPGQAPRLLIYGASSRATGIPDRFSGSGSGTDFTLTISRLEPEDFAVYYCQRYGTSPLTFGGGTKVEIKR
notes: also called CASI HC T2A RORss LC; AAV2/8.CASI.REGN4446 HC T2A LC
A word on the EC50: it is the midpoint of the concentration-response curve. B1: in assay [1], the “Neutralization EC50” value is 0.469 nM and 0.605 nM. Besides, the EC50 in assay [2] is 0.296 nM and 0.521 nM; in assay [4], 204 nM. Moreover, in assay [3], the “Neutralization IC50” value is ~0.00889 nM.
